These results are taken from US7531500B2, “Preventing airway mucus production by administration of EGF-R antagonists” (The Regents of the University of California, priority 1998, dated 2009).

Assay [1] concerns NCI-H292 cells. The assay is described as follows: Immunoassay of MUC5AC protein in NCI-H292 cells (Example 2). Type of assay: cell-based, human. The protocol:
Cell Culture. NCI-H292 cells, a human pulmonary mucoepidermoid carcinoma cell line, were grown in RPMI 1640 medium containing 10% fetal bovine serum, penicillin (100 U/ml), streptomycin (100 μg/ml) and Hepes (25 mM) at 37° C. in a humidified 5% CO2, water-jacketed incubator. Either 6-well culture plates or 8-chamber slides were used to culture the cells. […] The cells were then washed and incubated with fresh medium alone. Experiments were terminated at preselected times (for mRNA, 6 h and 12 h; for protein, 24 h). As controls, cells were incubated with medium alone for same time periods. […] In inhibition studies with blocking antibodies to EGF-R ligands, the supernatants were pretreated with anti-TGFα antibody (Calbiochem) or anti-EGF antibody for 30 min and then added to NCI-H292 cells. The role of oxygen free radicals was examined using scavengers of oxygen free radical DMSO (1%, Sigma), 1,3-dimethyl-2-thiourea (DMTU, 50 mM, Sigma), or superoxide dismutase (SOD, 300 U/ml, Sigma).
Preparation of Cigarette Smoke Solution. Research cigarettes (code2R1, produced for the University of Kentucky Tobacco and Health Research Foundation) were used in the study. Cigarette smoke solution was prepared as previously described (Dusser et al. (1989) J. Clin. Invest. 84:900-906). In brief, cigarette smoke was withdrawn into a polypropylene syringe (35 ml) at a rate of one puff/min (10 times) and bubbled slowly into 20 ml of RPM11640 containing 50 mM Hepes buffer. The smoke solution was then titrated to pH 7,4 and used immediately after preparation.
Immunoassay of MUC5AC Protein. MUC5AC protein was measured as described above. In brief, cell lysates were prepared with PBS at multiple dilutions, and 50 μl of each sample was incubated with bicarbonate-carbonate buffer (50 μl) at 40° C. in a 96-well plate (Maxisorp Nunc, Fisher Scientific, Santa Clara, Calif.), until dry. Plates were washed three times with PBS and blocked with 2% BSA (fraction V, Sigma) for 1 h at room temperature. Plates were again washed three times with PBS and then incubated with 50 μl of mouse monoclonal MUC5AC antibody (1:100) that was diluted with PBS containing 0.05% Tween 20. After 1 h, the wells were washed three times with PBS, and 100 μl horseradish peroxidase-goat anti-mouse IgG conjugate (1:10,000, Sigma) was dispensed into each well. After 1 h, plates were washed three times with PBS. Color reaction was developed with TMB peroxidase solution (Kirkegaard & Perry Laboratories, Gaithersburg, Md.) and stopped with 2N H2SO4. Absorbance was read at 450 nm.

The test system of assay [2] is sensitized rats. The assay is described as follows: Goblet cell production in ovalbumin-sensitized rats (asthma model). Format: in vivo, rat. The following applies: for Goblet cells in tracheal epithelium: counted over 2 mm basal lamina, 5 rats. The method, then:
Sensitization. Rats were sensitized on days 0 and 10 with intraperitoneal injections of ovalbumin (10 mg, grade V; Sigma, St. Louis, Mo.), complexed with 100 mg of aluminum hydroxide in 0.5 ml of sterile saline, Rats then rested for 10 days. On day 20, ovalbumin was delivered directly into the trachea; animals were challenged with 100 μl of 0.1% ovalbumin in saline by intratracheal instillation three times (days 20, 22 and 24). Rats were euthanized either without challenge (day 20), or 48 h after the third challenge (day 26). This procedure induced goblet cell metaplasia. To block the goblet cell hyperplasia, sensitized rats were pretreated with an EGF-R tyrosine kinase inhibitor, BIBX1522. On days of ovalbumin challenge (days 20, 22 and 24), sensitized rats were pretreated with BIBX1 522 (10 mg/kg, i.p., 1 h before the challenge) and then BIBX1522 was also instilled into the trachea together with ovalbumin (BIBX1522, 10^−5M, 100 μl). BIBX1522 was also injected i.p. every 24 h until the day before the rats were euthanized. After the animals were euthanized, the trachea was removed 48 h after the third challenge.
Tissue preparation. At preselected times during anesthesia, the systemic circulation was perfused with 1% paraformaldehyde in DEPC-treated PBS at a pressure of 120 mmHg. The trachea was then removed and placed in 4% paraformaldehyde for 24 h. After fixation, trachea and lungs were embedded in either JB-4 plus monomer solution A for cell analysis or O.C.T. compound (Sakura Finetek U.S.A., Inc., Torrance, Calif.) for immunohistochemistry and in situ hybridization. The embedded tissues were cut as cross sections ([…] thick) and placed on slides.
Cell analysis. We counted the total number of epithelial cells by counting epithelial cell nuclei over 2 mm of the basal lamina with an oil immersion objective lens (×1000 magnification). The linear length of the basal lamina under each analyzed region of epithelium was determined by tracing the contour of the digitized image of the basal lamina. After instillation of stimuli, “developing” goblet cells form. These cells have Alcian blue/PAS-positive granules, but the size of granules is small, and the number of cytoplasmic granules is few. We call these “developing” goblet cells “pre-goblet cells”, a stage before cells become mature goblet cells. Goblet cells are tall, cuboidal, goblet to low columnar in shape, with abundant Alcian blue/PAS-stained granules filling most of the cytoplasm between the nucleus and the luminal surface. Pre-goblet cells are defined as cells with smaller mucus-stained areas (<1/3 height in epithelium from basement membrane to luminal surface) or with sparsely and lightly Alcian blue/PAS-stained, small granules. Ciliated cells are recognized by their ciliated borders, lightly stained cytoplasm, and large round nuclei. Non-granulated secretory cells are columnar in shape and extend from the lumen to the basal lamina. The cytoplasm stains light pink color, and a few tiny PAS-positive and Alcian blue-negative granules are observed in the cytoplasm. Basal cells are small flattened cells with a large nucleus, located just above the basal lamina but not reaching the airway lumen.
Quantification of goblet cell production. Goblet cell production, was determined by the volume density of Alcian blue/PAS-stained mucosubstances on the mucosal surface epithelium using a semi-automatic imaging system described elsewhere (Weber et al. (1984) Science 224:294-297). We measured the Alcian blue/PAS-positive stained area and the total epithelial area and expressed the data as the percentage of the total area stained by Alcian blue-PAS. The analysis was performed with the public domain NIH Image program (developed at the U.S. National Institute of Health and available from the Internet by anonymous FTP from zippy.nimh.gov or on floppy disk from the National Technical Information Service, Springfield, Va., part number PB95-500195GEI).

Regarding `CNC(=S)NC` [DMTU, 1,3-dimethyl-2-thiourea], the “MUC5AC synthesis by supernatant of activated neutrophils, cigarette smoke and H2O2” value in assay [1] (DMSO 1%, DMTU 50 mM, SOD 300 U/ml) is listed as “significantly inhibited”.
As for IL-8: recombinant human IL-8 (Genzyme), the “MUC5AC synthesis, stimulus alone without neutrophils” value in assay [1] (1 h incubation, protein at 24 h, IL-8 10^-8 M, fMLP 10^-8 M, TNFα 20 ng/ml) was “no effect”.

B1: Ova: ovalbumin, grade V (Sigma), used to sensitize and challenge rats (protein, UniProt P01012 2-386, looked up)
Ovalbumin: GSIGAASMEFCFDVFKELKVHHANENIFYCPIAIMSALAMVYLGAKDSTRTQINKVVRFDKLPGFGDSIEAQCGTSVNVHSSLRDILNQITKPNDVYSFSLASRLYAEERYPILPEYLQCVKELYRGGLEPINFQTAADQARELINSWVESQTNGIIRNVLQPSSVDSQTAMVLVNAIVFKGLWEKAFKDEDTQAMPFRVTEQESKPVQMMYQIGLFRVASMASEKMKILELPFASGTMSMLVLLPDEVSGLEQLESIINFEKLTEWTSSNVMEERKIKVYLPRMKMEEKYNLTSVLMAMGITDVFSSSANLSGISSAESLKISQAVHAAHAEINEAGREVVGSAEAGVDAASVSEEFRADHPFLFCIKHIATNAVLFFGRCVSP
B1: in assay [2] (Ova i.p. + i.t.), the “% of AB/PAS-stained area” value stood at 38.7 ± 6.2 %, the “Basal cells in tracheal epithelium” value was 59.8 ± 2.9, the “Ciliated cells in tracheal epithelium” value amounted to 52.4 ± 7.1 and the “Indeterminate cells in tracheal epithelium” value is listed as 2.6 ± 0.5. Also, in assay [2] (Ova i.p. + i.t.), the “Pre-goblet cells in tracheal epithelium” value was found to be 36.0 ± 6.3, the “Secretory cells in tracheal epithelium” value is 49.8 ± 4.2 and the “Total cells in tracheal epithelium” value was 238.8 ± 4.4. Besides, in assay [2] (Ova i.p. only), the “% of AB/PAS-stained area” value worked out at 7.8 ± 2.9%, the “Basal cells in tracheal epithelium” value turned out to be 60.2 ± 3.4, the “Ciliated cells in tracheal epithelium” value was found to be 56.4 ± 3.8 and the “Indeterminate cells in tracheal epithelium” value turned out to be 1.4 ± 0.2. In assay [2] (Ova i.p. only), the “Pre-goblet cells in tracheal epithelium” value came to 13.8 ± 1.4, the “Secretory cells in tracheal epithelium” value amounted to 67.6 ± 7.0 and the “Total cells in tracheal epithelium” value came to 204.8 ± 6.6. Moreover, the “Goblet cells in tracheal epithelium” value in assay [2] (Ova sensitization i.p. + i.t.) is listed as 38.2 ± 6.3. Besides, the “Goblet cells in tracheal epithelium” value in assay [2] (Ova sensitization i.p. only) came to 5.4 ± 1.5.
